In article PMC4603797, “The Structural Differences between a Glycoprotein Specific F-Box Protein Fbs1 and Its Homologous Protein FBG3” (PLoS ONE, 2015):

B1: SBD of Fbs1 (117–297), wild type [murine] / ribonuclease B [modified: a single high-mannose oligosaccharide; a single high-mannose oligosaccharide] [bovine] (parent)
chain 1: FYFLSKRRRNLLRNPCGEEDLEGWSDVEHGGDGWRVEELPGDNGVEFTQDDSVKKYFASSFEWCRKAQVIDLQAEGYWEELLDTTQPAIVVKDWYSGRTDAGSLYELTVRLLSENEDVLAEFATGQVAVPEDGSWMEISHTFIDYGPGVRFVRFEHGGQDSVYWKGWFGARVTNSSVWVEP
chain 2: KETAAAKFERQHMDSSTSAASSSNYCNQMMKSRNLTKDRCKPVNTFVHESLADVQAVCSQKNVACKNGQTNCYQSYSTMSITDCRETGSSKYPNCAYKTTQANKHIIVACEGNPYVPVHFDASV

Variants of: B1
Experiment: pull-down
Settings: with ribonuclease B [modified: a single high-mannose oligosaccharide, parent: 100, read off a plot

Row | Variant | percent of parent
1 | chain 1 A101C | 100%
2 | chain 1 A101C L104K | 110%
3 | chain 1 L104K | 110%
4 | chain 1 T99P | 49%
5 | chain 1 T99P A101C | 25%
6 | chain 1 T99P L104K | 48%
